Results reported in patent US20240336661A1, “PEPTIDES DERIVED FROM RUMINOCOCCUS TORQUES” (University of Copenhagen, priority 2021, published 2024).

Columns and labels:
integrin αV/β5 receptor = integrin αV/β5 receptor (Homo sapiens, UniProt P06756+P18084); assay: SPOT peptide microarray (μSPOT) binding assay; details: for relative integrin αV/β5 binding in 15-mer peptide library screening: His-tag integrin αV/β5 2.5 nM, semi-quantitative; for relative integrin αV/β5 binding, truncation scanning library of 19-mer epitopes: integrin αV/β5 2.5 nM
Sequence of integrin αV/β5 receptor (P06756 31-992 limits assumed): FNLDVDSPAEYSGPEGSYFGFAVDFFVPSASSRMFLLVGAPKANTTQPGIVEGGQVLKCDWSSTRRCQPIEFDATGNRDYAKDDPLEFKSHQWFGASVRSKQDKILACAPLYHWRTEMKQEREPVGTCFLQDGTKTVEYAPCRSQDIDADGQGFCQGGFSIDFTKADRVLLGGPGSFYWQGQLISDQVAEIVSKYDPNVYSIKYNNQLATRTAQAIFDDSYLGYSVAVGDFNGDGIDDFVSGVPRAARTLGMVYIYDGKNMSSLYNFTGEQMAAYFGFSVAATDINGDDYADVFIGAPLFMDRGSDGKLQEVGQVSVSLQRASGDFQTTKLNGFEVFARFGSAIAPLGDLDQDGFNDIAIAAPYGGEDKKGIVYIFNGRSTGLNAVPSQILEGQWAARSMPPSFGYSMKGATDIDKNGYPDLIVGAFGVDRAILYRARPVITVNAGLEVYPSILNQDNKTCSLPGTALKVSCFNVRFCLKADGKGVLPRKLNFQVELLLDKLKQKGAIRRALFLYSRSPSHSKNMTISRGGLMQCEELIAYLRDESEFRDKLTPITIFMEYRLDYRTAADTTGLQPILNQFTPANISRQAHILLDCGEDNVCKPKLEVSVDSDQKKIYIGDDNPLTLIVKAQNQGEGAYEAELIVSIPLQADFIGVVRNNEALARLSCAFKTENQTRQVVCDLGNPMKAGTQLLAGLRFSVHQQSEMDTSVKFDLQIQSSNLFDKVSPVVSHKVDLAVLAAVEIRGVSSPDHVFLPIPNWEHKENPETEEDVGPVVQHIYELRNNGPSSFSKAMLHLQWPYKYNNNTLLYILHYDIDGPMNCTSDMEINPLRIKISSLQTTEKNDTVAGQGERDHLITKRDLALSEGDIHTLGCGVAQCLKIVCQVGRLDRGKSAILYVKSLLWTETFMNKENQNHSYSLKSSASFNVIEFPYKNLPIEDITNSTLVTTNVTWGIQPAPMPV
Sequence of integrin αV/β5 receptor (P18084 24-719 limits assumed): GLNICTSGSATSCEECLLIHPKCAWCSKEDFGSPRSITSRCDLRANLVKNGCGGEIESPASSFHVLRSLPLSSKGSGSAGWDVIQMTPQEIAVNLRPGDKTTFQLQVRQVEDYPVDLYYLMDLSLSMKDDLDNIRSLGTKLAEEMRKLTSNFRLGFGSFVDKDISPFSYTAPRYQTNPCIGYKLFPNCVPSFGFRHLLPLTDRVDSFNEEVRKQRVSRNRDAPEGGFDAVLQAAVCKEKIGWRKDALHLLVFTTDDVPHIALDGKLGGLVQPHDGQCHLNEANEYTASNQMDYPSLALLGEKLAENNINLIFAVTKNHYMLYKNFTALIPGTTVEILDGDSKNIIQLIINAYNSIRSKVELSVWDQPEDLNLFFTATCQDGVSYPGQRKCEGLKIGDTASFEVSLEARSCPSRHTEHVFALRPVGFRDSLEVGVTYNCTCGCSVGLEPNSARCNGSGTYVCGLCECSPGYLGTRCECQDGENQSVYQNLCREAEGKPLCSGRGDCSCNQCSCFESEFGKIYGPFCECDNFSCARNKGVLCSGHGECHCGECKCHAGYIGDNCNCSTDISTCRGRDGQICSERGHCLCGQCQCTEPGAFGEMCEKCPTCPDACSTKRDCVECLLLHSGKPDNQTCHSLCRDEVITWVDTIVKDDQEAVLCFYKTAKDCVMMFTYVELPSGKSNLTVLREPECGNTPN
Method: μSPOT peptide arrays^25 (CelluSpots, Intavis AG, Cologne, Germany) were synthesized using a RePepSL synthesizer (Intavis AG) on acid labile, amino functionalized, cellulose membrane discs (Intavis AG) containing 9-fluorenylmethy-loxycarbonyl-β-alanine (Fmoc-β-Ala) linkers (minimum loading 1.0 μmol/cm). Synthesis was initiated by Fmoc deprotection using 20% piperidine in N-methylpyrrolidone (NMP) (1×2 and 1 ×4 μL, 3 and 5 min, respectively) followed by washing with dimethylforma-mide (DMF, 7×100 μL per disc) and ethanol (EtOH, 3×300 μL per disc). The loading of the discs were reduced to 50%, by using a mixture of Fmoc-Gly-OH and Boc-Gly-OH (0.25 M: 0.25 M in NMP). All couplings were achieved using 1.2 μL of coupling solution consisting of preactivated amino acids (AAs, 0.5 M) with ethyl 2-cyano-2-(hydroxyimino)acetate oxyma (1.5 M) and N,N′-diisopropylcarbodiimide (DIC, 1.1 M) in NMP (2:1:1, AA:oxyma:DIC). The couplings were carried out 6 times (5, 10, 20, 30, 30, and 30 min, respectively), and subsequently, the membrane was capped twice with capping mixture (5% […] in NMP), followed by washes with DMF (7×100 μL per disc). After chain elongation, final Fmoc deprotection was performed with 20% piperidine in NMP (3×4 μL, 5 min each), followed by 6× washes with DMF, subsequent N-terminal acetylation with capping mixture (3×4 μL, 5 min each) and final washes with DMF (7×100 μL per disc) and EtOH (7×200 μL per disc). Dried cellulose membrane discs were transferred to 96 deep-well blocks and were treated with the side-chain deprotection solution consisting of 80% TFA, 12% DCM, 5% H2O, and 3% TIPS (150 μL per well) for 1.5 h at room temperature (rt). Afterward, the deprotection solution was removed, and the discs were solubilized overnight at rt using a solvation mixture containing 88.5% TFA, 4% trifluoromethansufonic acid (TFMSA), 5% H2O, and 2.5% TIPS (250 μL per well). The resulting peptide-cellulose conjugates were precipitated with ice-cold ether (700 μL per well) and spun down at 1000 rpm for 90 min, followed by an additional wash of the formed pellet with ice-cold ether. The resulting pellets were redissolved in DMSO (250 μL per well) to give final stocks, which were transferred to a 384-well plate and printed (in duplicates) on white coated CelluSpots blank slides (76×26 mm, Intavis AG) using a SlideSpotter robot (Intavis AG).
After the peptide array slides were rinsed with 100 mM phosphate buffered saline (PBS) (pH 7.4), the arrays were blocked with 3% bovine serum albumin (BSA) in PBS for >2 h at rt. Subsequently, the arrays were incubated with His-tagged Integrin receptor (2.5 nM) in blocking for 1 h at rt. After 5×1 min washes with blocking buffer the slides were probed with HRP-conjugated 6x-His tag antibody (1:10000, ab184607, abcam) for 0.5 h at rt. Finally, the slides were washed 3×1 min with PBS, 2×1 min with PBST, 2×1 min PBS at rt. The washed arrays visualized using SuperSignal West Femto Maximum Sensitivity Substrate (Thermo Scientific) with Fusion FX SPectra multimodal imaging platform (Vilber). The resulting blots were analyzed using the Array Analyze Software (Active Motif), which defines the error range of each data set by comparing the intensities of each peptide duplicate on the analyzed array.
Prior to the initial screening, we confirmed that the secondary antibody produces no non-specific binding (‘background binding’) to the coated microscopic slide (FIG. 41A). The relative binding affinity of the resulting peptides was then evaluated in a semi-quantitative manner by screening the μSPOT peptide array with recombinantly expressed His-tag integrin αV/β5 (2.5 nM), followed by incubation with a horse radish peroxidase (HRP) conjugated 6x-His antibody (FIG. 41B). […]

mouse 3T3-L1 fibroblasts = assay: Gene expression in 3T3-L1 fibroblasts (q-PCR); format: cell-based; details: 3T3-L1 fibroblasts
Method: 3T3-L1 cells (a murine fibroblast cell line) were split onto 12-well plates and grown to confluence before inducing differentiation by treatment with 86 nM insulin, 0.1 μM dexamethasone, and 250 μM methyl isobutylxanthine. Two days after induction, cells were switched to an inducing medium in the presence of recombinant RUCILPs, or commercial recombinant irisin (Sigma, #SRP8039-10UG and Phoenix pharmaceuticals, #067-29A), or phosphate buffered saline (PBS) for two days. Subsequently, cells were maintained in 86 nM insulin in the presence of indicated concentrations of recombinant RUCILPs, 21-AABP1, commercial recombinant irisin, or PBS for four days with medium change every other day for 6 days. Cells were then harvested for q-PCR analysis as described in standard protocol for gene expression analysis.
Total RNA from cells or tissues was extracted according to the instructions provided by manufacturer of RNeasy mini kit (Qiagen) using QIAzol lysis reagent (Qiagen), followed by measurements of RNA purities and concentrations by NanoDrop 2000 spectrophotometer (Thermo Scientific). A total of 1 μg of RNA was used for the reverse transcription to cDNA using the iScript™ Select cDNA Synthesis Kit (Bio-Rad Laboratories). The samples were subjected to real-time PCR using the LC480 system (Roche Diagnostics) after premixing with Precision®PLUS Master Mix (Primer Design). For each indicated gene, samples were run in duplicate in a 384-well plate and ΔΔCt method was used for quantifying the expressions after normalization to the housekeeping Rpl36 or GAPDH gene.
Firstly, we tested the dose-response effects of RUCILPs on gene expression in mouse fibroblasts (3T3-L1), mouse […] (MLO-Y4), and mouse myoblasts (C2C12). To estimate effect on adipocyte browning, we measured expression of Ucp1, Prdm16, Pgc1a, Dio2 and Cox2, and expression of AdipoQ was measured as a marker of white adipocytes. As a marker of bone formation, we measured expression of Sclerostin; and markers of myotube formation included expression of Heyl, Sox3, and Stat3.

| relative integrin αV/β5 binding in 15-mer peptide library screening (integrin αV/β5 receptor) | Substance | further results |
| --- | --- | --- |
| binding epitopes | SEQ ID NO: 183: 19-mer binding epitope of RUCILP2, residues 12-30, ETSAKASWKNAADGKEAAG (Alanine scanning sequence; (1)..(19) Alanine scanning sequence of RUCILP1) | – |
| binding epitopes | SEQ ID NO: 169: 19-mer binding epitope of RUCILP1, residues 12-30, ETSAKVSWKNAADGKEAAG (Ruminococcus torques) | – |
| relatively high affinity | SEQ ID NO: 168: C-terminal 15-mer of RUCILP2, residues 73-87, NESVKSEKVTFKTLK (Ruminococcus torques) | – |

The next lines start with the substance.

| Substance | relative integrin αV/β5 binding in 15-mer peptide library screening (integrin αV/β5 receptor) | further results |
| --- | --- | --- |
| SEQ ID NO: 165: 15-mer of RUCILP2, residues 70-84, AAGNESVKSEKVTFK (Ruminococcus torques) | significant binding | – |
| SEQ ID NO: 235: 9-mer truncation of RUCILP1 epitope, residues 12-20, ETSAKVSWK (Ruminococcus torques) | – | relative integrin αV/β5 binding, truncation scanning library of 19-mer epitopes (integrin αV/β5 receptor): high binding affinity |
| SEQ ID NO: 268: 9-mer truncation of RUCILP2 epitope, residues 12-20, ETSAKASWK (Ruminococcus torques) | – | relative integrin αV/β5 binding, truncation scanning library of 19-mer epitopes (integrin αV/β5 receptor): high binding affinity |
| SEQ ID NO: 95: C-terminal 15-mer of RUCILP1, residues 74-88, ESAKSEKVEFTTVKK (Ruminococcus torques) | relatively high affinity | – |
| 21-AABP1: the 21-amino acids fragment derived from RUCILP1 (DGTTYSVEVTAVDAAGEESAK; Ruminococcus torques) | – | effects on browning markers Ucp1, Prdm16, Dio2 (mouse 3T3-L1 fibroblasts): non-significant |
